Publication PMC9376891

Target: Rae1(31-368);Nup98(157-213) GLEBS (human;human, UniProt P78406;P52948 31-368;157-213, |)
Experiment: EMSA
Conditions: protein: recombinant;recombinant; tags: untagged;N-terminal His tag removed by TEV; copies: 1;1; label: 5' FAM; single strand

Rae1(31-368);Nup98(157-213) GLEBS, sequence (P78406 31-368, chain 1 of 2): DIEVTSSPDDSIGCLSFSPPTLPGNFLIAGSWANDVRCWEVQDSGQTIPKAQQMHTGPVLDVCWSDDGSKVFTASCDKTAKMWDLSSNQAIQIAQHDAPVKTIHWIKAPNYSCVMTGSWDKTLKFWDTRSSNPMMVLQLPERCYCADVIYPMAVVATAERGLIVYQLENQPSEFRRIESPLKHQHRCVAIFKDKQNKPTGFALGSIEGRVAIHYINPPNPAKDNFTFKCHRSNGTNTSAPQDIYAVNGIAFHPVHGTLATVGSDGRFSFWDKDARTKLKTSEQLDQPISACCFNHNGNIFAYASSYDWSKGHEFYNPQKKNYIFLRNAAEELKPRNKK
Rae1(31-368);Nup98(157-213) GLEBS, sequence (P52948 157-213, chain 2 of 2): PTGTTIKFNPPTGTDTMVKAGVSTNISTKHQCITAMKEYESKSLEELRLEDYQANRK

B1: 10-mer poly(U) ssRNA (ssRNA)
RNA: UUUUUUUUUU
  binding result: binds
